The results in this text go back to publication doi:10.1101/2023.08.22.554218 (bioRxiv, 2023).

The target in the assay is T1, Recombinant human PDZD8 (1,28-) - FLAG (human, UniProt Q8NEN9 1-1154, (1, 28-)).
T1 sequence (looked up): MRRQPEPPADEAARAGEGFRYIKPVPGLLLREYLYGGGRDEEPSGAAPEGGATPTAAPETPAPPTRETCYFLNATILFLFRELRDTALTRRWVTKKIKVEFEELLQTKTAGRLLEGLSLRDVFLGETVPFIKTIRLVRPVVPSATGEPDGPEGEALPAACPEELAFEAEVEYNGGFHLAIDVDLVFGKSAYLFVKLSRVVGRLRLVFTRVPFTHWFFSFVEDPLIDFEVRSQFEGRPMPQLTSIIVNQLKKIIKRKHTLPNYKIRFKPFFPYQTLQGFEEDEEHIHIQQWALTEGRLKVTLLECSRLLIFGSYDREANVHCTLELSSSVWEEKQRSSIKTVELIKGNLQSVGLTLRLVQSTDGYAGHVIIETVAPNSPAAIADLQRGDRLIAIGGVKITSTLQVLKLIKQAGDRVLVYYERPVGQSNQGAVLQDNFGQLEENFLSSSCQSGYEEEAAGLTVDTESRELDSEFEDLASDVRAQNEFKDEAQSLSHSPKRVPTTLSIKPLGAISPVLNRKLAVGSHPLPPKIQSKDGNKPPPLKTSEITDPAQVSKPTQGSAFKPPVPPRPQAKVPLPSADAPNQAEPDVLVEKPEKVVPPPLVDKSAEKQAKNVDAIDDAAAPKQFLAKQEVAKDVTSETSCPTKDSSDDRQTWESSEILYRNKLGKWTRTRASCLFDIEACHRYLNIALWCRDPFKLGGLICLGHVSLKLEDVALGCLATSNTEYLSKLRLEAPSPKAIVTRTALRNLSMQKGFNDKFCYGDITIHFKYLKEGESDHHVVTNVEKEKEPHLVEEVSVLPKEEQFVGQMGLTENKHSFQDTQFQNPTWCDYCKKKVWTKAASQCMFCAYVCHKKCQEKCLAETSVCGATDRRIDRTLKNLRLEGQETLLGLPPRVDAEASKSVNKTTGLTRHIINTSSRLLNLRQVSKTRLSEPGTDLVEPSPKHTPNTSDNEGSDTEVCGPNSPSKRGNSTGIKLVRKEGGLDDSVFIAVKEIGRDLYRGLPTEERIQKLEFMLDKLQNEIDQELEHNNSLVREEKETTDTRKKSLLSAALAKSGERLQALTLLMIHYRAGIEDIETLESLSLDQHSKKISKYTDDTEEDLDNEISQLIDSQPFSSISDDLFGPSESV
Nature of the assay: SPR.

B1: Recombinant human FKBP8 (1-380) - Histag (domain or fragment, UniProt Q14318 1-380, looked up)
chain: MASCAEPSEPSAPLPAGVPPLEDFEVLDGVEDAEGEEEEEEEEEEEDDLSELPPLEDMGQPPAEEAEQPGALAREFLAAMEPEPAPAPAPEEWLDILGNGLLRKKTLVPGPPGSSRPVKGQVVTVHLQTSLENGTRVQEEPELVFTLGDCDVIQALDLSVPLMDVGETAMVTADSKYCYGPQGRSPYIPPHAALCLEVTLKTAVDGPDLEMLTGQERVALANRKRECGNAHYQRADFVLAANSYDLAIKAITSSAKVDMTFEEEAQLLQLKVKCLNNLAASQLKLDHYRAALRSCSLVLEHQPDNIKALFRKGKVLAQQGEYSEAIPILRAALKLEPSNKTIHAELSKLVKKHAAQRSTETALYRKMLGNPSRLPAKCPG
In the case of B1, the Kd worked out at 142 µM.
